Molecular target: the molecule itself
Assay: photobleaching step counting (TIRF microscopy, streaming mode); single GFP-tagged motors moving on immobilised microtubules, ATP reduced to 15 µM, 100 ms exposure for 1200 frames; only one and two step bleaching events seen

B1: His-Kif18A^FL-GFP (natural protein, human, UniProt Q8NI77 1-898, looked up)
chain: MSVTEEDLCHHMKVVVRVRPENTKEKAAGFHKVVHVVDKHILVFDPKQEEVSFFHGKKTTNQNVIKKQNKDLKFVFDAVFDETSTQSEVFEHTTKPILRSFLNGYNCTVLAYGATGAGKTHTMLGSADEPGVMYLTMLHLYKCMDEIKEEKICSTAVSYLEVYNEQIRDLLVNSGPLAVREDTQKGVVVHGLTLHQPKSSEEILHLLDNGNKNRTQHPTDMNATSSRSHAVFQIYLRQQDKTASINQNVRIAKMSLIDLAGSERASTSGAKGTRFVEGTNINRSLLALGNVINALADSKRKNQHIPYRNSKLTRLLKDSLGGNCQTIMIAAVSPSSVFYDDTYNTLKYANRAKDIKSSLKSNVLNVNNHITQYVKICNEQKAEILLLKEKLKAYEEQKAFTNENDQAKLMISNPQEKEIERFQEILNCLFQNREEIRQEYLKLEMLLKENELKSFYQQQCHKQIEMMCSEDKVEKATGKRDHRLAMLKTRRSYLEKRREEELKQFDENTNWLHRVEKEMGLLSQNGHIPKELKKDLHCHHLHLQNKDLKAQIRHMMDLACLQEQQHRQTEAVLNALLPTLRKQYCTLKEAGLSNAAFESDFKEIEHLVERKKVVVWADQTAEQPKQNDLPGISVLMTFPQLGPVQPIPCCSSSGGTNLVKIPTEKRTRRKLMPSPLKGQHTLKSPPSQSVQLNDSLSKELQPIVYTPEDCRKAFQNPSTVTLMKPSSFTTSFQAISSNINSDNCLKMLCEVAIPHNRRKECGQEDLDSTFTICEDIKSSKCKLPEQESLPNDNKDILQRLDPSSFSTKHSMPVPSMVPSYMAMTTAAKRKRKLTSSTSNSSLTADVNSGFAKRVRQDNSSEKHLQENKPTMEHKRNICKINPSMVRKFGRNISKGNLR
notes: also called full-length Kif18A^FL-GFP; not shown: His6, N-terminal, kept; GFP, C-terminal, kept
- stoichiometry N: 2

B2: His-Kif18A^1-777-GFP (domain or fragment, human, UniProt Q8NI77 1-777, looked up)
chain: MSVTEEDLCHHMKVVVRVRPENTKEKAAGFHKVVHVVDKHILVFDPKQEEVSFFHGKKTTNQNVIKKQNKDLKFVFDAVFDETSTQSEVFEHTTKPILRSFLNGYNCTVLAYGATGAGKTHTMLGSADEPGVMYLTMLHLYKCMDEIKEEKICSTAVSYLEVYNEQIRDLLVNSGPLAVREDTQKGVVVHGLTLHQPKSSEEILHLLDNGNKNRTQHPTDMNATSSRSHAVFQIYLRQQDKTASINQNVRIAKMSLIDLAGSERASTSGAKGTRFVEGTNINRSLLALGNVINALADSKRKNQHIPYRNSKLTRLLKDSLGGNCQTIMIAAVSPSSVFYDDTYNTLKYANRAKDIKSSLKSNVLNVNNHITQYVKICNEQKAEILLLKEKLKAYEEQKAFTNENDQAKLMISNPQEKEIERFQEILNCLFQNREEIRQEYLKLEMLLKENELKSFYQQQCHKQIEMMCSEDKVEKATGKRDHRLAMLKTRRSYLEKRREEELKQFDENTNWLHRVEKEMGLLSQNGHIPKELKKDLHCHHLHLQNKDLKAQIRHMMDLACLQEQQHRQTEAVLNALLPTLRKQYCTLKEAGLSNAAFESDFKEIEHLVERKKVVVWADQTAEQPKQNDLPGISVLMTFPQLGPVQPIPCCSSSGGTNLVKIPTEKRTRRKLMPSPLKGQHTLKSPPSQSVQLNDSLSKELQPIVYTPEDCRKAFQNPSTVTLMKPSSFTTSFQAISSNINSDNCLKMLCEVAIPHNRRKECGQEDLDSTFTICEDIK
notes: not shown: His6, N-terminal, kept; GFP, C-terminal, kept
- stoichiometry N: 2

Source: paper PMC3213134, “A Non-Motor Microtubule Binding Site Is Essential for the High Processivity and Mitotic Function of Kinesin-8 Kif18A” (PLoS ONE, 2011)
